How the values were obtained:
[1] = target: α5β1 integrin (Homo sapiens, UniProt P05556+P08648); settings: cited from earlier work
[2] = target: αvβ6 integrin (Homo sapiens, UniProt P06756+P18564); settings: cited from earlier work
[3] = target: αvβ3 integrin (Homo sapiens, UniProt P05106+P06756); settings: cited from earlier work
[4] = target: αvβ5 integrin (Homo sapiens, UniProt P06756+P18084); settings: cited from earlier work
[5] = tested on: normal fibroblasts; test: Cell viability assay (MTT), normal fibroblasts; format: cell-based; settings: 72 h
Procedure: (§1) Cultured cell lines (5×10^3 cells/well) were seeded in 96 wells plates and incubated for 72 h with various amounts of RGD-SAP or CYS-SAP at 37° C., 5% CO2. Cell viability was then quantified by 3-(4,5-dimethylthiazol-2-yl)-2,5-diphenyltetrazolium bromide staining (MTT) (working solution 0.5 μg/ml). After 1 h of incubation, the supernatants were removed, the formazan crystals were dissolved with dimethyl sulfoxide and the absorbance at 570 nm was measured using a microtiter plate reader. Competitive experiments were performed as described above using 100 nM of RGD-SAP or 1000 nM of CYS-SAP in the presence of 5000 nM of ACDCRGDCFCG peptide for 48 and 72 hours.
as §1, with “NGR-SAP, RGD-SAP, CgA-SAP, CYS-SAP, ATF-SAP” for “RGD-SAP”, “seed SAP” for “CYS-SAP”, “reader.” for “reader. Competitive experiments were performed as described above using 100 nM of RGD-SAP or 1000 nM of CYS-SAP in the presence of 5000 nM of ACDCRGDCFCG peptide for 48 and 72 hours.”

[6] = tested on: subcutaneous MB49 tumors; test: Subcutaneous syngeneic bladder cancer mouse model; format: in vivo, C57BL/6 mice
Text: (§2) Studies on animal models were approved by the Institutional Animal Care and Use Committee (Institutional Animal Care and Use Committee, IACUC) and performed according to the prescribed guidelines. C57BL/6 female mice (7 weeks old, Charles River, Calco, Italy) were challenged with subcutaneous injection in the left flank of 3-5×10^5 MB49 living cells; 5 days later, 4-6 mice/group were intravenously administered with various doses of RGD-SAP or CYS-SAP diluted in sodium chloride (0.9%, i.v., 200 μl). Tumor growth was estimated by calculating the volume using the formula r1×r2×r3×4/3 π, where r1 and r2 are the longitudinal and lateral radii, and r3 is the thickness of tumors protruding from the surface of normal skin. Animals were euthanized when tumors reached 10 mm in diameter, became ulcerated or a 15% animal body weight loss was measured.

[7] = tested on: 5637, RT112, RT4, U87, MDA-MB-468 cancer cell lines; test: Cell viability assay (MTT), cancer cell lines; format: cell-based, human
Procedure: as §1
as §1, with “NGR-SAP, RGD-SAP, CgA-SAP, CYS-SAP, ATF-SAP” for “RGD-SAP”, “seed SAP” for “CYS-SAP”, “reader.” for “reader. Competitive experiments were performed as described above using 100 nM of RGD-SAP or 1000 nM of CYS-SAP in the presence of 5000 nM of ACDCRGDCFCG peptide for 48 and 72 hours.”

[8] = tested on: 5637 bladder cancer cells; test: MTT competition experiment with free RGD-4C peptide; format: cell-based, human; settings: 0.1 μM RGD-SAP or 1 μM CYS-SAP, 5 μM peptide, 48 and 72 h
Procedure: as §1

[9] = Toxicity in the subcutaneous model (body weight, injection site, serum biochemical parameters); format: in vivo, C57BL/6 mice
Text: as §2
Blood samples were collected from the retroorbital plexus of anesthetized mice using 4% isoflurane at the end of each experiment or before animal sacrifice. Blood samples were left at room temperature for at least 30 min before being processed and then centrifuged (800×g, 10 min) for serum separation. Serum albumin, aspartate transaminase, alanine transaminase, creatinine and urea were determined by using an automated analyzer (ScilVet ABC plus and Idexx Procyte analyzers) according to the manufacturers' instructions. Standard controls were run before each determination.

[10] = tested on: caspase 3 in 5637 and MDA-MB-468 cells; test: Caspase 3 activation (western blot); format: cell-based, human; settings: 30 nM, 48 and 72 h
Procedure: Cells were washed twice with cold PBS, collected by scraping and centrifuged 5 min at 300 g. Cells were lysed for 30 min on ice in ice-cold buffer (50 mM Tris-HCl, pH 7.5, containing 150 mM NaCl, 2 mM NaF, 1 mM EDTA, 1 mM EGTA, 1 mM Na3VO4, 1 mM PMSF, 75 mU/ml aprotinin (Sigma-Aldrich), 1% TritonX-100 and a proteinase inhibitor Cocktail® (Sigma-Aldrich). Cell lysates were centrifuged at 10000×g at 4° C. for 10 min and the supernatants were recovered and quantified for total protein content. Equal amounts of cell protein extracts were separated by SDS-PAGE under reducing conditions unless stated otherwise. For western blot analysis, proteins were transferred onto a nitrocellulose membrane, incubated with 5% non-fat powdered milk in TBS-T (0.5% Tween-20) for 1 hour and then with the following antibodies: anti-saporin anti-serum (rabbit, 1:5000), anti-caspase 3 (rabbit, 1:2000, clone E87, Abcam), anti-beta actin (mouse, 1:10000, clone AC-15, Sigma-Aldrich). The antibody binding was detected using a secondary horseradish peroxidase conjugated antibodies (donkey anti-mouse/rabbit IgG HRP-linked, GE Healthcare) and an enhanced chemiluminescent (ECL, Merck Millipore).
To induce caspase 3 activation, cells were treated with 30 nM RGD-SAP or 2 mM DTT for 48 and 72 hours.

Sequence of α5β1 integrin (P08648 42-1049): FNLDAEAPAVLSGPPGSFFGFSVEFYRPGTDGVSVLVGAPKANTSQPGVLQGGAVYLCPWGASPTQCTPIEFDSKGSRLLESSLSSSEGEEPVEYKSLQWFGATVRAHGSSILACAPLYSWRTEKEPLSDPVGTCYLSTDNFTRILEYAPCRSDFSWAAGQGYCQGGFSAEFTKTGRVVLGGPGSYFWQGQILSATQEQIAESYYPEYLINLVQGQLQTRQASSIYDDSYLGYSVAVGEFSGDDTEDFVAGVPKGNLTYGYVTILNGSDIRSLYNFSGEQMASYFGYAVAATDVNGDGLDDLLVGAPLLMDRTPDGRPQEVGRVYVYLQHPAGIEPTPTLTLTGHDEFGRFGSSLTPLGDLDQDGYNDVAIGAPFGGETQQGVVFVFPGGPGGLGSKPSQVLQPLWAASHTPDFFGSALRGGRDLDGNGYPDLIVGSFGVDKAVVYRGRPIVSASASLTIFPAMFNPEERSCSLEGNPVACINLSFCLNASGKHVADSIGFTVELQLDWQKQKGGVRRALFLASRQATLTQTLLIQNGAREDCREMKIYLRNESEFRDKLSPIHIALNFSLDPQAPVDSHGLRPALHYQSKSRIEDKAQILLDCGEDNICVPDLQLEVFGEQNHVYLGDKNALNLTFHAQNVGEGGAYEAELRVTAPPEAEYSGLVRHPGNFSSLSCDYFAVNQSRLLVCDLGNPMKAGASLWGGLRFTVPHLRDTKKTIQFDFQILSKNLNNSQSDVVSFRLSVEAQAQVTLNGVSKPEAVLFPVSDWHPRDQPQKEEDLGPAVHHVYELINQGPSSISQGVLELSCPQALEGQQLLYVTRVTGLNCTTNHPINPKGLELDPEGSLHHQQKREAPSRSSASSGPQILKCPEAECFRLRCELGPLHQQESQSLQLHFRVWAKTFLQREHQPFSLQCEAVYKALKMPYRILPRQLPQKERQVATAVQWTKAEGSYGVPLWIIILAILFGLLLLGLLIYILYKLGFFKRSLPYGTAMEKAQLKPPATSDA
Sequence of α5β1 integrin (P05556 21-798): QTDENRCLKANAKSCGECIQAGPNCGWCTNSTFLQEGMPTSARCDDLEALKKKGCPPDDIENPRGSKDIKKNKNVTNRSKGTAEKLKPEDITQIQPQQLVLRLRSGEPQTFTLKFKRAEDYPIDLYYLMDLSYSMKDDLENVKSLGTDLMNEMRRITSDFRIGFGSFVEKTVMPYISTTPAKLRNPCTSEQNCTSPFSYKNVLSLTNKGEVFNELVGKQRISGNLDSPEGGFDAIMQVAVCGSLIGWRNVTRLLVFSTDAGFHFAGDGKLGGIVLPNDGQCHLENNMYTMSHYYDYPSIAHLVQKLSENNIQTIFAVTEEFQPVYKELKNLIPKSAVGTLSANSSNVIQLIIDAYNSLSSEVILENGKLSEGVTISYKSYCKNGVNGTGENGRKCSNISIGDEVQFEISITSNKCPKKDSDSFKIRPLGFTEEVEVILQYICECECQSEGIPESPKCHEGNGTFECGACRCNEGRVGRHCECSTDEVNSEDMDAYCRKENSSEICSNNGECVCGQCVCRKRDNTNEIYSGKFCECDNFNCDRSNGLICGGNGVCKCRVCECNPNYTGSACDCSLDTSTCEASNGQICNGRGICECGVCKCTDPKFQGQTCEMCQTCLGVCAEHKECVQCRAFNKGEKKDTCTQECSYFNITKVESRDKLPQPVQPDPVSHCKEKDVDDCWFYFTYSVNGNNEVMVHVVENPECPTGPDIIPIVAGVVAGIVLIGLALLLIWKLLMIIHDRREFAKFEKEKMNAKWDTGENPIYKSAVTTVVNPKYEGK
Sequence of αvβ5 integrin (P06756 31-1048): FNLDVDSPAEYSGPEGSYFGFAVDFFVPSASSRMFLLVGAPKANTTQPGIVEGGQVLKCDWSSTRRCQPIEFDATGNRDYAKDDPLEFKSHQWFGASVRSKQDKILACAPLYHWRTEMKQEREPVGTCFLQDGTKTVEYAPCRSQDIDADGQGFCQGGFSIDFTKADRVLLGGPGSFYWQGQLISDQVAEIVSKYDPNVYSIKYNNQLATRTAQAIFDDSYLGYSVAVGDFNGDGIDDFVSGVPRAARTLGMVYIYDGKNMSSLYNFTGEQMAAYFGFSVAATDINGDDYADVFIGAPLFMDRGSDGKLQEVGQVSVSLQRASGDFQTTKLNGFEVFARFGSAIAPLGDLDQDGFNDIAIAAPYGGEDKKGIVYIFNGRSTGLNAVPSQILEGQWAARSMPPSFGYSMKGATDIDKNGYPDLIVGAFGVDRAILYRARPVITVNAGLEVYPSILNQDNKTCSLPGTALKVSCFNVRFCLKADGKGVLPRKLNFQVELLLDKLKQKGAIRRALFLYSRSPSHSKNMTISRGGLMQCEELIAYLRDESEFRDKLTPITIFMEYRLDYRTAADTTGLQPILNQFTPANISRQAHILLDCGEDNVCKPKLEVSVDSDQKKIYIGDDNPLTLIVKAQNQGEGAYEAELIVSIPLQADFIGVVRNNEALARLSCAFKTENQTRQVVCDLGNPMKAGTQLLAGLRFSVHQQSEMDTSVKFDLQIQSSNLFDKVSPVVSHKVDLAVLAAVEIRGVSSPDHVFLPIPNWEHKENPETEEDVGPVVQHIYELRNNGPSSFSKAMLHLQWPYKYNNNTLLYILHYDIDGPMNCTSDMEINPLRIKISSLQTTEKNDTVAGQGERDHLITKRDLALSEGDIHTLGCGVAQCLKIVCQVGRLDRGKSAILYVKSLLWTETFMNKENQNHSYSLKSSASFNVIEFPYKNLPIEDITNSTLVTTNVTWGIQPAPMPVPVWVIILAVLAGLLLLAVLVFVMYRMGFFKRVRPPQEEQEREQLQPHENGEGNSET
Sequence of αvβ5 integrin (P18084 24-799): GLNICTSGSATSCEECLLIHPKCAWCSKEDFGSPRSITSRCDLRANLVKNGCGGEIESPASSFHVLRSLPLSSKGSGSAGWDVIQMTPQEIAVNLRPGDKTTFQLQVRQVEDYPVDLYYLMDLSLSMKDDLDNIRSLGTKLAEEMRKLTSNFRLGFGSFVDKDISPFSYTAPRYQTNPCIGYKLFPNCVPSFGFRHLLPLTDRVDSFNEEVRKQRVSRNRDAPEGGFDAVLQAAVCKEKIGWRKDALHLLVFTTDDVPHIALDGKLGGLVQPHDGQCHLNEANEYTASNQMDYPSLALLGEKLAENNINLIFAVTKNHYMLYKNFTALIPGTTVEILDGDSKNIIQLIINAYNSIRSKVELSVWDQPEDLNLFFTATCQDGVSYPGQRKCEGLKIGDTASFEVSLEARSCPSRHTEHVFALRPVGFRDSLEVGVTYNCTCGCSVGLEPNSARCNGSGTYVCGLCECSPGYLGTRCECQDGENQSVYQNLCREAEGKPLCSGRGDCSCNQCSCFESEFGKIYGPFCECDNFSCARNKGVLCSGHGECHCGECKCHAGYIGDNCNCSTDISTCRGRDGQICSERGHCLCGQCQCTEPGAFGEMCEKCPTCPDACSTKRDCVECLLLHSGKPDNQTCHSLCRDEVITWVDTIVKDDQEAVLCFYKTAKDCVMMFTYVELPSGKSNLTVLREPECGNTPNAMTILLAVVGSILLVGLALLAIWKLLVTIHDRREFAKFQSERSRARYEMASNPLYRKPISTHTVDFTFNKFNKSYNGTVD
Sequence of αvβ3 integrin (P06756 31-1048): as the sequence (P06756 31-1048) above
Sequence of αvβ3 integrin (P05106 27-788): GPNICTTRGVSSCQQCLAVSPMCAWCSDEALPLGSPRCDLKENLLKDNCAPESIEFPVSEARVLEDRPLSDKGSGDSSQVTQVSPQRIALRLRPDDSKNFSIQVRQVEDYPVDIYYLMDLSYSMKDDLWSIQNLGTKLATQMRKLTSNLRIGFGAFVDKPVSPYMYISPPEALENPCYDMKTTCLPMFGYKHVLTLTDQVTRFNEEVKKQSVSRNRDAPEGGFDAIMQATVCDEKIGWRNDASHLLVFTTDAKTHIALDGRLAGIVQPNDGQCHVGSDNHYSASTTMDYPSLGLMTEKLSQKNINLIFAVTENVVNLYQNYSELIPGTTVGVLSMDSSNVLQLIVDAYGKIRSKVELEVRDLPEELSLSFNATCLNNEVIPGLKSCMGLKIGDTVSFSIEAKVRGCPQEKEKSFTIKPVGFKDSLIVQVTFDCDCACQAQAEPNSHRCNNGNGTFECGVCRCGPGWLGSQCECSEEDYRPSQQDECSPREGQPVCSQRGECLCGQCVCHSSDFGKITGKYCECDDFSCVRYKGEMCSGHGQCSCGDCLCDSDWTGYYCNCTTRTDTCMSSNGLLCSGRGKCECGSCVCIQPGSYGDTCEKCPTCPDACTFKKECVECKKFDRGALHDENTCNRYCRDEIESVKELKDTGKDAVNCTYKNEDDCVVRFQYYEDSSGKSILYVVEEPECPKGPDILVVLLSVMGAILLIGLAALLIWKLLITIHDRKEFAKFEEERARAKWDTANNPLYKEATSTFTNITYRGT

Molecule: RGD-4C: ACDCRGDCFCG peptide (SEQ ID NO: 2), an αv-integrin ligand
- affinity value [1]: 244 nM
- affinity value [2]: 380 nM
- affinity value [3]: 8.3 nM
- affinity value [4]: 46 nM

B1: RGD-SAP: RGD-4C (ACDCRGDCFCG) fused via GGSSRSS linker to N-terminus of saporin, C-terminal VDK and 6xHis tag; SEQ ID NO: 6 (protein)
chain: ACDCRGDCFCGGGSSRSSVTSITLDLVNPTAGQYSSFVDKIRNNVKDPNLKYGGTDIAVIGPPSKEKFLRINFQSSRGTVSLGLKRDNLYVVAYLAMDNTNVNRAYYFKSEITSAELTALFPEATTANQKALEYTEDYQSIEKNAQITQGDKSRKELGLGIDLLLTFMEAVNKKARVVKNEARFLLIAIQMTAEVARFRYIQNLVTKNFPNKFDSDNKVIQFEVSWRKISTAIYGDAKNGVFNKDYDFGFGKVRQVKDLQMGLLMYLGKPKVDKHHHHHH
- cytotoxic effect compared to CYS-SAP [5]: but not with normal fibroblasts
- effect on tumor growth ([6]; 0.25 mg/kg i.v., days 5, 10, 15): but not 0.25 mg/kg
- effect on tumor growth ([6]; 0.5 mg/kg i.v., days 5, 10, 15): significant delay of tumor growth
- effect on tumor growth ([6]; 0.75 mg/kg i.v., days 5, 10, 15): significant delay of tumor growth
- survival, hazard ratio versus vehicle ([6]; 0.75 mg/kg, Mantel-Cox log-rank, 95% CI 1.19-23.10): 5.25
- complete tumor eradication ([6]; 1 mg/kg i.v., end of experiment day 19, n=4): 1 tumor undetectable and complete eradication in one mouse
- effect on tumor growth ([6]; 1 mg/kg i.v., three times every five days from day 5): marked reduction of the tumor volume in all mice
- cytotoxic effect compared to CYS-SAP ([7]; MTT, 72 h, all cancer cells): stronger cytotoxic effect
- sensitivity of U87 cells compared with the other cell lines ([7]; U87, highest amount of αvβ3): most sensitive
- effect of excess free RGD-4C peptide on cytotoxic activity [8]: significantly decreased the activity
- serum AST and CHE versus vehicle ([9]; 1 mg/kg): significantly higher values
- body weight ([9]; 1 mg/kg i.v., day 19): loss of body weight
- injection site reaction ([9]; 1 mg/kg i.v., tails): severe necrosis in the tails
- systemic toxicity (liver and kidney serum parameters) ([9]; 0.25-1 mg/kg): dose dependent and apparent only with the highest dose used
- body weight ([9]; 0.75 and 0.5 mg/kg i.v., days 5, 10, 15): without causing loss of body weight
- caspase 3 activation [10]: caspase 3 activation was detectable as cleaved form

Reference: patent US20250215411A1, “FUSION PROTEINS AND USES THEREOF” (priority 2022, published 2025)
